Columns and labels:
Assay in all cases: cell_activity
Conditions in all cases: HEK293T luciferase reporter, single TALE-TF
[1] = target: KLK3 TALE F TALE-TF (VP64) (synthetic (Xanthomonas TALE)?) (UniProt Q56830)
[2] = target: KLK3 TALE-A TALE-TF (VP64) (synthetic (Xanthomonas TALE)?) (UniProt Q56830)
[3] = tested on: KLK3 TALE D TALE-TF (VP64) (synthetic (Xanthomonas TALE)?)
[4] = target: KLK3 TALE E TALE-TF (VP64) (synthetic (Xanthomonas TALE)?) (UniProt Q56830)
[5] = tested on: IL1RN TALE-C TALE-TF (VP64) (synthetic (Xanthomonas TALE)?)
[6] = target: IL1RN TALE-A TALE-TF (VP64) (synthetic (Xanthomonas TALE)?) (UniProt Q56830)
[7] = tested on: IL1RN TALE-B TALE-TF (VP64) (synthetic (Xanthomonas TALE)?)
[8] = target: IL1RN TALE-D TALE-TF (VP64) (synthetic (Xanthomonas TALE)?) (UniProt P14727)
[9] = target: CEACAM5 TALE D TALE-TF (VP64) (synthetic (Xanthomonas TALE)?) (UniProt Q56830)
[10] = target: CEACAM5 TALE B TALE-TF (VP64) (synthetic (Xanthomonas TALE)?) (UniProt Q56830)
[11] = tested on: CEACAM5 TALE F TALE-TF (VP64) (synthetic (Xanthomonas TALE)?)
[12] = tested on: CEACAM5 TALE C TALE-TF (VP64) (synthetic (Xanthomonas TALE)?)
[13] = target: CEACAM5 TALE E TALE-TF (VP64) (synthetic (Xanthomonas TALE)?) (UniProt Q56830)

Substance: KLK3 promoter reporter (hg19 chr19:51357466-51358177)
- activity [1]: 4.57 fold RLA
- activity [2]: 25.1 fold RLA
- activity [3]: 45.8 fold RLA
- activity [4]: 2.17 fold RLA

Substance: IL1RN promoter reporter (hg19 chr2:113874366-113875462)
- activity [5]: 6.75 fold RLA
- activity [6]: 14.4 fold RLA
- activity [7]: 12 fold RLA
- activity [8]: 5.76 fold RLA

Substance: CEACAM5 promoter reporter (hg19 chr19:42211804-42212651)
- activity [9]: 4.59 fold RLA
- activity [10]: 11.6 fold RLA
- activity [11]: 4.7 fold RLA
- activity [12]: 3.74 fold RLA
- activity [13]: 2.41 fold RLA
